Columns and labels:
[1] = molecular target: synthetic sfGFP peptide, peptide variant 14; assay: AlphaScreen or HTRF
[2] = molecular target: synthetic sfGFP peptide, peptide variant 9; assay: AlphaScreen or HTRF

fold of the AlphaLISA signal of the wild-type TbtA leader sequence [1]: 2 fold
AlphaLISA signal, percent of the wild-type TbtA leader sequence [2]: 25%
Substance: MBP-TbtF RRE domain (domain or fragment)
